Key:
[1] = target: T1, glucocorticoid receptor (Mesocricetus auratus, UniProt A0A1U8BQ22); assay: Glucocorticoid receptor transactivation in SHM cells, MMTV-Luc reporter; assay type: cell-based; details: 1 nM Dex
T1 construct: endogenous in cells; host or cells: SHM (Syrian hamster myocyte) cells
T1 sequence (A0A1U8BQ22 1-774): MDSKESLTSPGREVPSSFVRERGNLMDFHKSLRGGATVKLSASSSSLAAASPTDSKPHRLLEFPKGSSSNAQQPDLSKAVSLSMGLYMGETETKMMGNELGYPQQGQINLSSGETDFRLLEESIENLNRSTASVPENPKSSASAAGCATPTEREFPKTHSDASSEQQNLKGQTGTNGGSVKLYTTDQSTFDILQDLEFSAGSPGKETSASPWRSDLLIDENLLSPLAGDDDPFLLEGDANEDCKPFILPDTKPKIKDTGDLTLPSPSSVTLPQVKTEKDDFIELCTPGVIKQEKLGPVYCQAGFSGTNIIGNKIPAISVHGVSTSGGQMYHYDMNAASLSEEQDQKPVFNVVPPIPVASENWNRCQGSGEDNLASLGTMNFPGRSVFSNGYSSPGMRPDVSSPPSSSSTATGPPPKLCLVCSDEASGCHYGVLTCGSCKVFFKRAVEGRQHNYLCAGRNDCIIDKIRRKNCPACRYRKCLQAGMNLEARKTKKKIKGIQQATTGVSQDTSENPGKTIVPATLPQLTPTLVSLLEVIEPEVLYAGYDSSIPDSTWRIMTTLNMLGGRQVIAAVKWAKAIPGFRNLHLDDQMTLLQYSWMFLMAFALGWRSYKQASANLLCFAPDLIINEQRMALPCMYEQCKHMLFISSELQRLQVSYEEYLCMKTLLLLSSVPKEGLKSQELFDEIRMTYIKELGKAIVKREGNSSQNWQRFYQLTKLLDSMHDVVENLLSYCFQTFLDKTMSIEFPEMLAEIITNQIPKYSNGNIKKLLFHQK
Experimental: Hamster smooth muscle cells (SHM) were transiently transfected with PSF-A expression vector together with a MMTV-Luc reporter vector. Cells were treated with either vehicle or 1 nM Dex for at least 24 hours. Luciferase activities were measured and normalized by β-galactosidase acitvity. Data shown in FIG. 13 are the mean of three separate experiments performed in triplicate ±S.E. Note: the empty vector pcDNA3 was added to the DNA mixture to ensure that the amounts of CMV promoter in all the transfection assays are equal.

[2] = test system: PRA and PRB protein; assay: PR protein level by western blot of whole cell lysate after co-transfection in SHM cells; assay type: cell-based
Experimental: FIG. 5. […] (A) SHM cells were transient transfected (eighteen hours) with PRA or PRB expression vector with or without increasing doses (0.2, 0.5, 1.0 and 2.0 μg) of His-PSF vector as indicated. Whole cell lysate was analyzed by western blot with PR or His tag antibody. NS=non-specific binding. (B) SHM cells were transient transfected (eighteen hours) with PRA or PRB expression vector together with 2.0 μg His tagged PSF1-707 or truncated PSF1-662. Culture media was added with or without 60 nM MG132 (Z-Leu-Leu-Leu-a1) as indicated for another 6 hours. Whole cell lysate was analyzed by western blot with PR or His tag antibody. Gβ protein was also detected as the cell lysate loading control.
For immunoprecipitation of the endogenous PR and PSF, T47D cells cultured in 150 mm dishes were lysed in 800 μl NETN buffer containing 150 mM NaCl plus protease inhibitor cocktail. Cell lysate were then incubated with 5 μg of PR or PSF, or control mouse IgG at 4° C. overnight, followed by the addition of 30 μl of protein A/G PLUS-agarose beads (Santa Cruz) for another two hours at 4° C. Resins were washed with NETN containing 250 mM NaCl and eluted with 1×Laemmli buffer. The eluted proteins along with the whole cell extract were western blotted by PR or PSF antibody. • GST pulldown assay: GST pulldown assay was performed as previously described (20). GST and its fusion proteins were first immobilized to glutathione-Sepharose 4B affinity matrix. The matrix was then incubated at 4° C. overnight with rabbit reticulocyte lysate (Promega) containing PR or His-PSF transcribed and translated in presence of ^35S methionine. The matrix was washed three times with cold NETN buffer before adding 1 ×Laemmli buffer to elute associated proteins. The eluted proteins were separated on 10% SDS-PAGE gel. Gels were treated with Enhancer (NEN, Boston, US) dried and analyzed by autoradiography. • Cell culture and transient transfection: SHM cells and 293T cells were maintained in DMEM plus 5% FCS (Sigma) as described before (22). For experiments involving steroid exposure, the medium was substituted with phenol red free DMEM containing 5% charcoal-treated fetal bovine serum (Hyclone, Utah, USA). Transfection was performed according to manufacturers protocol (Fementas). Cells were seeded at a density to achieve 60-80% confluency the following day. The DNA and transfection reagent were mixed and added to the medium. Cell lysates were collected at least 30 hours after transfection. For luciferase assay, cells were collected in 200 μl of lysis buffer (Promega) of which 10μl was used for the luciferase and β-Gal activity assays respectively. Luciferase activity was determined by using the luciferin reagent (Promega) according to manufacture's protocol. […]

B1: polypyrimidine tract binding protein-associated splicing factor (protein)
chain: MSRDRFRSRGGGGGGFHRRGGGGGRGGLHDFRSPPPGMGLNQNRGPMGPGPGQSGPKPPIPPPPPHQQQQQPPPQQPPPQQPPPHQPPPHPQPHQQQQPPPPPQDSSKPVVAQGPGPAPGVGSAPPASSSAPPATPPTSGAPPGSGPGPTPTPPPAVTSAPPGAPPPTPPSSGVPTTPPQAGGPPPPPAAVPGPGPGPKQGPGPGGPKGGKMPGGPKPGGGPGLSTPGGHPKPPHRGGGEPRGGRQHHPPYHQQHHQGPPPGGPGGRSEEKISDSEGFKANLSLLRRPGEKTYTQRCRLFVGNLPADITEDEFKRLFAKYGEPGEVFINKGKGFGFIKLESRALAEIAKAELDDTPMRGRQLRVRFATHAAALSVRNLSPYVSNELLEEAFSQFGPIERAVVIVDDRGRSTGKGIVEFASKPAARKAFERCSEGVFLLTTTPRPVIVEPLEQLDDEDGLPEKLAQKNPMYQKERETPPRFAQHGTFEYEYSQRWKSLDEMEKQQREQVEKNMKDAKDKLESEMEDAYHEHQANLLRQDLMRRQEELRRMEELHNQEMQKRKEMQLRQEEERRRREEEMMIRQREMEEQMRRQREESYSRMGYMDPRERDMRMGGGGAMNMGDPYGSGGQKFPPLGGGGGIGYEANPGVPPATMSGSMMGSDMRTERFGQGGAGPVGGQGPRGMGPGTPAGYGRGREEYEGPNKKPRF
notes: expressed from transfected His-PSF vector or in vitro translated
- glucocorticoid receptor activation of the MMTV promoter [1]: blocks its activation of the MMTV promoter
- PR proteins after co-transfection with PRB/PRA ([2]; after 24 hours): total loss of PR proteins
- level of PRA and PRB protein ([2]; increasing dose of PSF expression vector, constant dose of PR vector): decrease
